In US10081665B2, “Peptides and combination of peptides for use in immunotherapy against various tumors” (immatics biotechnologies GmbH, priority 2015, dated 2018):

Columns and labels:
[1] = target: HLA-A*02:01 (Homo sapiens, UniProt P04439, D140Y/D185E/D98H/E176V/E277Q/G131W/G231S/I119V/I121R/I166T/I218V/L300P/L318F/N151K/N90K/P208A/P217A/Q86G/Q94H/R138H/R169H/T345S); assay: MHC binding assay (UV-ligand exchange, beta2m ELISA); conditions: binding to HLA-A*02:01, β2m ELISA
Procedure, shortened: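 Peptide-MHC complexes made by UV-ligand exchange of a UV-cleavable peptide for test peptide; exchange yield measured by β2m ELISA on streptavidin-coated plates with samples diluted 100-fold, HRP anti-β2m and TMB read at 450 nm. Refolded HLA-A*02:01/MLA-001 monomers (15-500 ng/ml) served as standards.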

[2] = test system: CD8+ T cells; assay: In vitro immunogenicity: T-cell priming with aAPCs loaded with peptide/MHC complexes and anti-CD28, pMHC multimer readout; format: cell-based, human; conditions: for Wells positive [%]: in vitro immunogenicity, HLA-A*02 restricted peptides, percentage of positive wells and donors (among evaluable); for in vitro immunogenicity: donors: positive donors; for in vitro immunogenicity: donors / in vitro immunogenicity: wells: CD8+ T cells of healthy HLA-A*02 donors, three stimulation cycles, multimer staining; for in vitro immunogenicity: wells: positive wells
Description: In order to obtain information regarding the immunogenicity of the TUMAPs of the present invention, the inventors performed investigations using an in vitro T-cell priming assay based on repeated stimulations of CD8+ T cells with artificial antigen presenting cells (aAPCs) loaded with peptide/MHC complexes and anti-CD28 antibody.
In order to perform in vitro stimulations by artificial antigen presenting cells loaded with peptide-MHC complex (pMHC) and anti-CD28 antibody, the inventors first isolated CD8+ T cells from fresh HLA-A*02 leukapheresis products via positive selection using CD8 microbeads (Miltenyi Biotec, Bergisch-Gladbach, Germany) of healthy donors obtained from the University clinics Mannheim, Germany, after informed consent. PBMCs and isolated CD8+ lymphocytes were incubated in T-cell medium (TCM) until use consisting of RPMI-Glutamax (Invitrogen, Karlsruhe, Germany) supplemented with 10% heat inactivated human AB serum (PAN-Biotech, Aidenbach, Germany), 100 U/ml Penicillin/100 μg/ml Streptomycin (Cambrex, Cologne, Germany), 1 mM sodium pyruvate (CC Pro, Oberdorla, Germany), 20 μg/ml Gentamycin (Cambrex). 2.5 ng/ml IL-7 (PromoCell, Heidelberg, Germany) and 10 U/ml IL-2 (Novartis Pharma, Nürnberg, Germany) were also added to the TCM at this step. Generation of pMHC/anti-CD28 coated beads, T-cell stimulations and readout was performed in a highly defined in vitro system using four different pMHC molecules per stimulation condition and 8 different pMHC molecules per readout condition.
The purified co-stimulatory mouse IgG2a anti human CD28 Ab 9.3 (Jung et al., 1987) was chemically biotinylated using Sulfo-N-hydroxysuccinimidobiotin as recommended by the manufacturer (Perbio, Bonn, Germany). Beads used were 5.6 μm diameter streptavidin coated polystyrene particles (Bangs Laboratories, Illinois, USA).
pMHC used for positive and negative control stimulations were A*0201/MLA-001 (peptide […] (SEQ ID NO. 289) from modified Melan-A/MART-1) and A*0201/DDX5-001 ([…] from DDX5, SEQ ID NO. 290), respectively.
800,000 beads/200 μl were coated in 96-well plates in the presence of 4×12.5 ng different biotin-pMHC, washed and 600 ng biotin anti-CD28 were added subsequently in a volume of 200 μl. Stimulations were initiated in 96-well plates by co-incubating 1×10^6 CD8+ T cells with 2×10^5 washed coated beads in 200 μl TCM supplemented with 5 ng/ml IL-12 (PromoCell) for 3 days at 37° C. Half of the medium was then exchanged by fresh TCM supplemented with 80 U/ml IL-2 and incubating was continued for 4 days at 37° C. This stimulation cycle was performed for a total of three times. For the pMHC multimer readout using 8 different pMHC molecules per condition, a two-dimensional combinatorial coding approach was used as previously described (Andersen et al., 2012) with minor modifications encompassing coupling to 5 different fluorochromes. Finally, multimeric analyses were performed by staining the cells with Live/dead near IR dye (Invitrogen, Karlsruhe, Germany), CD8-FITC antibody clone SK1 (BD, Heidelberg, Germany) and fluorescent pMHC multimers. For analysis, a BD LSRII SORP cytometer equipped with appropriate lasers and filters was used. Peptide specific cells were calculated as percentage of total CD8+ cells. Evaluation of multimeric analysis was done using the FlowJo software (Tree Star, Oreg., USA). In vitro priming of specific multimer+CD8+ lymphocytes was detected by comparing to negative control stimulations.

Peptide exchange (MHC class I binding score, peptide exchange yield) [1] | Substance | Wells positive [%] [2] | in vitro immunogenicity: donors [2] | in vitro immunogenicity: wells [2]
+++ (≥50 = +++) | 271 (VLIEYNFSI; listed as Homo sapiens) [compound 271] | – | – | –
++ (≥20% = ++) | 272 (FVMEGEPPKL; listed as Homo sapiens) [compound 272] | – | – | –
++ (≥20% = ++) | 273 (SLNKQIETV; listed as Homo sapiens) [compound 273] | – | – | –
+++ (≥50 = +++) | 274 (TLYNPERTITV; listed as Homo sapiens) [compound 274] | – | – | –
++ (≥20% = ++) | 275 (AVPPPPSSV; listed as Homo sapiens) [compound 275] | – | – | –
+++ (≥50 = +++) | 276 (RMPTVLQCV; listed as Homo sapiens) [compound 276] | – | – | –
+++ (≥50 = +++) | 277 (KLQEELNKV; listed as Homo sapiens) [compound 277] | – | – | –
+++ (≥50 = +++) | 278 (VLEDKVLSV; listed as Homo sapiens) [compound 278] | – | – | –
++ (≥20% = ++) | 279 (VLMDEGAVLTL; listed as Homo sapiens) [compound 279] | – | – | –
+++ (≥50 = +++) | 280 (HLWGHALFL; listed as Homo sapiens) [compound 280] | – | – | –
++ (≥20% = ++) | 281 (LLLESDPKVYSL; listed as Homo sapiens) [compound 281] | – | – | –
++ (≥20% = ++) | 282 (SLYALHVKA; listed as Homo sapiens) [compound 282] | – | – | –
+++ (≥50 = +++) | 283 (ALSELLQQV; listed as Homo sapiens) [compound 283] | – | – | –
++ (≥20% = ++) | 284 (KLMDPGSLPPL; listed as Homo sapiens) [compound 284] | – | – | –
+++ (≥50 = +++) | 285 (MLLDTVQKV; listed as Homo sapiens) [compound 285] | – | – | –
+++ (≥50 = +++) | 286 (FLTEMVHFI; listed as Homo sapiens) [compound 286] | – | – | –

The remaining lines, values behind:

Substance | Peptide exchange (MHC class I binding score, peptide exchange yield) [1] | Wells positive [%] [2] | in vitro immunogenicity: donors [2] | in vitro immunogenicity: wells [2]
4 (VLFGELPAL; listed as Homo sapiens) [compound 4] | +++ (≥50 = +++) | + (<20% = +) | – | –
9 (SLITGQDLLSV; listed as Homo sapiens) [compound 9] | +++ (≥50 = +++) | + (<20% = +) | – | –
14 (YTFSGDVQL; listed as Homo sapiens) [compound 14] | +++ (≥50 = +++) | + (<20% = +) | – | –
17 (GLLPSAESIKL; listed as Homo sapiens) [compound 17] | ++++ (≥75% = ++++) | + (<20% = +) | – | –
18 (KTASINQNV; listed as Homo sapiens) [compound 18] | ++ (≥20% = ++) | +++ (50%-69% = +++) | – | –
27 (GLLGKVTSV; listed as Homo sapiens) [compound 27] | +++ (≥50 = +++) | + (<20% = +) | – | –
29 (KMISAIPTL; listed as Homo sapiens) [compound 29] | ++ (≥20% = ++) | + (<20% = +) | – | –
34 (TLNTLDINL; listed as Homo sapiens) [compound 34] | +++ (≥50 = +++) | ++++ (>=70% = ++++) | – | –
35 (VIIKGLEEI; listed as Homo sapiens) [compound 35] | ++ (≥20% = ++) | + (<20% = +) | – | –
39 (YLEDGFAYV; listed as Homo sapiens) [compound 39] | +++ (≥50 = +++) | ++++ (>=70% = ++++) | – | –
50 (ILLSVLHQL; listed as Homo sapiens) [compound 50] | +++ (≥50 = +++) | + (<20% = +) | – | –
66 (AMFPDTIPRV; listed as Homo sapiens) [compound 66] | ++ (≥20% = ++) | + (<20% = +) | – | –
77 (ALYGNVQQV; listed as Homo sapiens) [compound 77] | +++ (≥50 = +++) | + (<20% = +) | – | –
82 (ILAEEPIYIRV; listed as Homo sapiens) [compound 82] | +++ (≥50 = +++) | +++ (50%-69% = +++) | – | –
89 (SLAETIFIV; listed as Homo sapiens) [compound 89] | +++ (≥50 = +++) | + (<20% = +) | – | –
97 (KLFEKSTGL; listed as Homo sapiens) [compound 97] | +++ (≥50 = +++) | + (<20% = +) | – | –
101 (SLLEVNEASSV; listed as Homo sapiens) [compound 101] | +++ (≥50 = +++) | + (<20% = +) | – | –
102 (GLYPVTLVGV; listed as Homo sapiens) [compound 102] | +++ (≥50 = +++) | + (<20% = +) | – | –
121 (ALYVQAPTV; listed as Homo sapiens) [compound 121] | ++ (≥20% = ++) | + (<20% = +) | – | –
157 (ILQDGQFLV; listed as Homo sapiens) [compound 157] | ++ (≥20% = ++) | + (<20% = +) | – | –
183 (ALSYILPYL; listed as Homo sapiens) [compound 183] | +++ (≥50 = +++) | +++ (50%-69% = +++) | – | –
203 (FLFVDPELV; listed as Homo sapiens) [compound 203] | ++ (≥20% = ++) | +++ (50%-69% = +++) | – | –
233 (SLFESLEYL; listed as Homo sapiens) [compound 233] | +++ (≥50 = +++) | + (<20% = +) | – | –
236 (KMSELQTYV; listed as Homo sapiens) [compound 236] | +++ (≥50 = +++) | + (<20% = +) | – | –
287 (KIQEILTQV; listed as Homo sapiens) [compound 287] | – | – | +++ (50%-69% =+++) | + (<20% = +)
288 (SLYKGLLSV; listed as Homo sapiens) [compound 288] | – | – | ++++ (>= 70% = ++++) | ++ (21%-49% = ++)
